Data published in patent US8512991B2, “Beta 1,4-galactosyltransferases with altered donor and acceptor specificities, compositions and methods of use” (The United States of America, as represented by the …, priority 2007, dated 2013).
Read-outs that look alike come from different tables or passages of the source.

How the values were obtained:
[1] = Ramakrishnan et al. 2002, 2004, cited from earlier work
[2] = Transfer of GalNAc or 2-keto-galactose to heptasaccharide tetrapeptide, MALDI mass spectra (FIG. 1); type: biochemical
Method: Major peaks are annotated with the carbohydrate structure shown in the symbols for monosaccharides, according to the nomenclature adopted by the consortium for functional glycomics, (on the world wide web at functionalglycomics.org/static/consortium/). GlcNAc (squares), mannose (spheres).
The experiments shown in FIG. 1 were performed with the double mutant, b4Gal-T1_M340H_Y285L, which was constructed from the single mutants, b4Gal-T1_M340H and b4Gal-T1_Y285L. The b4Gal-T1-M340H single mutant requires Mg2+ for the transfer reaction, while the b4Gal-T1 Y285L single mutant requires Mn2+ for the transfer reaction. In FIGS. 1, (A), (B) and (C) show the MALDI mass spectra of glycans after the transfer of GalNAc (shown in B) or 2-keto-galactose (shown in C) to the sugar acceptor, heptasaccharide tetrapeptide (A), Arg-[GlcNAcβ1,2-Manα-1,6-(GlcNAcβ1,2-Manα1,3)-Manβ1,4-GlcNAcβ1,4-GlcNAcβ]-Asn-Glu-Gly, by the double mutant enzyme, b4Gal-T1M340H_Y285L. In FIG. 1, major peaks are annotated with the carbohydrate structure shown in the symbols for monosaccharides, according to the nomenclature adopted by the consortium for functional glycomics (publicly available on the world wide web at functional glycomics.org/static/consortium/).

[3] = Gal-T and GalNAc-T enzyme assay, specific activities of the catalytic domain (FIG. 2); type: biochemical; conditions: in the presence of magnesium; saturating substrates, 500 μM UDP-galactose or UDP-GalNAc, β-benzyl-GlcNAc 25 mM
Method: FIG. 2 is a graph showing specific activities of the catalytic domain of the human beta 4Gal-T1-M340H-Y285L. Reactions were performed under saturating conditions of all substrates. In these reactions the concentrations for the donors UDP-galactose or UDP-GalNAc was 500 μM and the acceptor β-benzyl-GlcNAc was at 25 mM.
The reactions were performed under saturating conditions of all substrates. […] This is in contrast to the wild type, which is not active (not able to transfer sugar) in the presence of magnesium.
Gal-T and GalNAc T enzyme assays are easily performed according to methods described in the art, for example US Published Application 20060084162. Protein concentrations are measured using the Bio-Rad protein assay kit, based on the method of Bradford and further verified on SDS gel. An in vitro assay procedure for the Gal-T1 has been reported previously (Ramakrishnan et al., J. Biol. Chem., 270, […] (2001)). The activities were measured using UDP-Gal or UDP-GalNAc as sugar nucleotide donors, and GlcNAc and Glc as the acceptor sugars. […] The column was washed successfully with 300, 400, and 500 µl of water, and the column flow-through was diluted with Biosafe scintillation fluid; radioactivity was measured with a Beckman counter. […]

B1: b4Gal-T1Y289L: single mutant beta4Gal-T1, Tyr289 to Leu (bovine numbering), enlarged binding pocket with GalNAc-T activity (protein, UniProt P08037 1-402, looked up, variant Y289L)
chain: MKFREPLLGGSAAMPGASLQRACRLLVAVCALHLGVTLVYYLAGRDLRRLPQLVGVHPPLQGSSHGAAAIGQPSGELRLRGVAPPPPLQNSSKPRSRAPSNLDAYSHPGPGPGPGSNLTSAPVPSTTTRSLTACPEESPLLVGPMLIEFNIPVDLKLVEQQNPKVKLGGRYTPMDCISPHKVAIIIPFRNRQEHLKYWLYYLHPILQRQQLDYGIYVINQAGESMFNRAKLLNVGFKEALKDYDYNCFVFSDVDLIPMNDHNTYRCFSQPRHISVAMDKFGFSLPYVQLFGGVSALSKQQFLSINGFPNNYWGWGGEDDDIYNRLAFRGMSVSRPNAVIGKCRMIRHSRDKKNEPNPQRFDRIAHTKETMLSDGLNSLTYMVLEVQRYPLYTKITVDIGTPS
beta 4GalNAc-T activity compared with beta 4Gal-T activity ([1]; listed as beta 4Gal-T1-Y289L): exhibits both beta 4Gal-T and beta 4GalNAc-T activities | beta 4GalNAc-T activity compared with beta 4Gal-T activity ([1]; listed as beta4Gal-T1-Y289L): as efficient as its beta-1,4-galactosyltransferase (beta 4Gal-T) activity | metal ion required for the transfer reaction (GalNAc or a modified sugar) [2]: require the presence of Mn2+

B2: b4Gal-T1-M340H-Y285L: double mutant human beta 1,4-galactosyltransferase I, Tyr285Leu and Met340His, transfers GalNAc or modified galactose with magnesium (protein, UniProt P15291 1-398, looked up, variant M340H Y285L)
chain: MRLREPLLSGSAAMPGASLQRACRLLVAVCALHLGVTLVYYLAGRDLSRLPQLVGVSTPLQGGSNSAAAIGQSSGELRTGGARPPPPLGASSQPRPGGDSSPVVDSGPGPASNLTSVPVPHTTALSLPACPEESPLLVGPMLIEFNMPVDLELVAKQNPNVKMGGRYAPRDCVSPHKVAIIIPFRNRQEHLKYWLYYLHPVLQRQQLDYGIYVINQAGDTIFNRAKLLNVGFQEALKDYDYTCFVFSDVDLIPMNDHNAYRCFSQPRHISVAMDKFGFSLPYVQLFGGVSALSKQQFLTINGFPNNYWGWGGEDDDIFNRLVFRGMSISRPNAVVGRCRHIRHSRDKKNEPNPQRFDRIAHTKETMLSDGLNSLTYQVLDVQRYPLYTQITVDIGTPS
activity (able to transfer sugar) of the catalytic domain [3]: is active | transfer of GalNAc or a modified sugar (2-keto-galactose) to the sugar acceptor ([2]; in the presence of Mg2+, acceptor heptasaccharide tetrapeptide): transfer of GalNAc or a modified sugar

B3: b4Gal-T1-M340H: single mutant human beta4Gal-T1, Met340 to His, from which the double mutant was constructed (protein, UniProt P15291 1-398, looked up, variant M340H)
chain: MRLREPLLSGSAAMPGASLQRACRLLVAVCALHLGVTLVYYLAGRDLSRLPQLVGVSTPLQGGSNSAAAIGQSSGELRTGGARPPPPLGASSQPRPGGDSSPVVDSGPGPASNLTSVPVPHTTALSLPACPEESPLLVGPMLIEFNMPVDLELVAKQNPNVKMGGRYAPRDCVSPHKVAIIIPFRNRQEHLKYWLYYLHPVLQRQQLDYGIYVINQAGDTIFNRAKLLNVGFQEALKDYDYTCFVFSDVDLIPMNDHNAYRCFSQPRHISVAMDKFGFSLPYVQYFGGVSALSKQQFLTINGFPNNYWGWGGEDDDIFNRLVFRGMSISRPNAVVGRCRHIRHSRDKKNEPNPQRFDRIAHTKETMLSDGLNSLTYQVLDVQRYPLYTQITVDIGTPS
metal ion required for the transfer reaction (GalNAc or a modified sugar) [2]: requires Mg2+

B4: b4Gal-T1 Y285L: single mutant human beta4Gal-T1, Tyr285 to Leu, from which the double mutant was constructed (protein, UniProt P15291 1-398, looked up, variant Y285L)
chain: MRLREPLLSGSAAMPGASLQRACRLLVAVCALHLGVTLVYYLAGRDLSRLPQLVGVSTPLQGGSNSAAAIGQSSGELRTGGARPPPPLGASSQPRPGGDSSPVVDSGPGPASNLTSVPVPHTTALSLPACPEESPLLVGPMLIEFNMPVDLELVAKQNPNVKMGGRYAPRDCVSPHKVAIIIPFRNRQEHLKYWLYYLHPVLQRQQLDYGIYVINQAGDTIFNRAKLLNVGFQEALKDYDYTCFVFSDVDLIPMNDHNAYRCFSQPRHISVAMDKFGFSLPYVQLFGGVSALSKQQFLTINGFPNNYWGWGGEDDDIFNRLVFRGMSISRPNAVVGRCRMIRHSRDKKNEPNPQRFDRIAHTKETMLSDGLNSLTYQVLDVQRYPLYTQITVDIGTPS
metal ion required for the transfer reaction (GalNAc or a modified sugar) [2]: requires Mn2+
